How the values were obtained:
[1] = target: carcinoembryonic antigen (CEA) (UniProt P06731); assay: competition RIA on CEA coated beads, transfected CHO cell supernatant; apparent A5B7 concentration divided by assembly assay result
[2] = target: carcinoembryonic antigen (CEA) (UniProt P06731); assay: competition RIA, 125I-labelled A5B7 IgG1 on CEA coated beads, purified material
[3] = target: carcinoembryonic antigen (CEA) (UniProt P06731); assay: competition RIA on CEA coated beads, transfected CHO cell supernatant
[4] = target: carcinoembryonic antigen (CEA) (UniProt P06731); assay: competition RIA on CEA coated beads

carcinoembryonic antigen (CEA), sequence (P06731 35-685 limits assumed): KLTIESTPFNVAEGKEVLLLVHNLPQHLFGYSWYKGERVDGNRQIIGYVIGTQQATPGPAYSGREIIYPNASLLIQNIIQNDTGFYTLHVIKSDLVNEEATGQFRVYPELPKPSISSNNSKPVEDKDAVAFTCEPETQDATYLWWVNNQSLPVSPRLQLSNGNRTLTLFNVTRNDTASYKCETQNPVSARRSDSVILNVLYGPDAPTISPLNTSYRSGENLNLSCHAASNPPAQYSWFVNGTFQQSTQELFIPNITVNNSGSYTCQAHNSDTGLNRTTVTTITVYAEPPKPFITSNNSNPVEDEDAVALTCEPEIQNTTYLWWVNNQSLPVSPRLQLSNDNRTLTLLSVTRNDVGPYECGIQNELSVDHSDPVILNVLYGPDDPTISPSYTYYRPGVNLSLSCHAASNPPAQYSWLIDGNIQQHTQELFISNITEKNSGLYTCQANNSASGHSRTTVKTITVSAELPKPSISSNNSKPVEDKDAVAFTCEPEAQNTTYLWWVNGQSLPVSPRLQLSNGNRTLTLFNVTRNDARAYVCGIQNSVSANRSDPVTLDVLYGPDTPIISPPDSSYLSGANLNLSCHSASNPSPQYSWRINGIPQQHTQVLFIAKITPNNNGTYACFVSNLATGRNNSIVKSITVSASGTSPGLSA

| Specific activity [1] | % Relative Potency [2] | % Relative Potency [3] | fold reduced potency against murine A5B7 IgG [4] | Substance |
| --- | --- | --- | --- | --- |
| 1.17 | 100% | 100% |  | chimeric A5B7 IgG1 whole antibody |
|  | 97% |  |  | murine A5B7 F(ab')2 |
|  | 8% |  | 10 fold | murine A5B7 Fab' (alkylated) |

Reference: patent publication WO1992001059A1
